What all share (type): cell-based
Holding throughout (conditions): 100 μg/mL for 18 hours

One experiment relates to TCM^Null cells. Nature of the experiment: CXCL8 levels in cell supernatants, TCM^Null cells. The source says: (§1) Three HEK 293 cell lines, TCM^Null (TLR4^Null, CD14^Null, MD2^Null), TLR4^Hi (TLR4^Hi, CD14^Null, MD2^Null) and TCM^hi (TLR4^Hi, CD14^Hi, MD2^Hi; InvivoGen, San Diego, Calif.), were used. In some experiments hTERT immortalized normal human bronchial epithelial cells (HBECs) were used, as previously described (17).
(§2) Measurement of CXCL8 levels in cell supernatants. TCM^Null, TLR4^Hi, TCM^Hi, TLR4^Hi-ST, or TLR4^Hi-MD2 cells were stimulated with RWPE, Bermuda grass, rye grass, pigweed, mountain cedar, cat dander, LPS, or Amb a 1 at 100 μg/mL for 18 hours. In some experiments HBECs, HBECs transfected with siRNA against MD2, or sham-transfected HBECs were starved for 24 hours and stimulated with RWPE, Bermuda grass, rye grass, timothy grass, pigweed, Russian thistle, cottonwood, walnut, and cat dander allergenic extracts. Cell supernatants were assayed for CXCL8.

A further experiment relates to TLR4^Hi cells. Nature of the experiment: CXCL8 levels in cell supernatants, TLR4^Hi cells.
Description: as §1, §2

The next experiment has as its system TCM^Hi cells. Nature of the experiment: CXCL8 levels in cell supernatants, TCM^Hi cells.
Description: as §1, §2

Data on 1 molecule can be found in patent publication US20160311911A1, “METHODS FOR TREATING ALLERGIC AIRWAY INFLAMMATION” (priority 2015, published 2016).

B1: Amb a 1: major allergen in RWPE, a single protein (protein)
chain: AEDLQEILPVNETRRLTTSGAYNIIDGCWRGKADWAENRKALADCAQGFGKGTVGGKDGDIYTVTSELDDDVANPKEGTLRFGAAQNRPLWIIFERDMVIRLDKEMVVNSDKTIDGRGAKVEIINAGFTLNGVKNVIIHNINMHDVKVNPGGLIKSNDGPAAPRAGSDGDAISISGSSQIWIDHCSLSKSVDGLVDAKLGTTRLTVSNSLFTQHQFVLLFGAGDENIEDRGMLATVAFNTFTDNVDQRMPRCRHGFFQVVNNNYDKWGSYAIGGSASPTILSQGNRFCAPDERSKKNVLGRHGEAAAESMKWNWRTNKDVLENGAIFVASGVDPVLTPEQSAGMIPAEPGESALSLTSSAGVLSCQPGAPC
With B1, the “CXCL8 secretion from TCM^Null cells” value in the experiment with TCM^Null cells is “only in TCM^Hi cells”. In addition, the “CXCL8 secretion from TLR4^Hi cells” value in the experiment with TLR4^Hi cells is given as “only in TCM^Hi cells”. For the same molecule, the “CXCL8 secretion from TCM^Hi cells” value in the experiment with TCM^Hi cells is “induced CXCL8 secretion”.
